Measured values from the supplement of paper PMC9170038.

System: MS2 coat protein
Experiment: apparent KD of MS2 coat protein; designed switch direction (-1 OFF switch, 1 ON switch): -1; higher = weaker reporter binding
In short: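 For each design, the apparent KD is the median over clusters of curves fitted to normalised cluster fluorescence. Clusters held RNA switches with common flanks, transcribed on Illumina chips by stalled E. coli RNA polymerase. These were titrated with SNAP-549-labelled MS2 coat protein, doubling from 0.7 or 1.5 nM to 3 µM, without input, with 200 uM small-molecule ligand, or with an oligonucleotide input.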

[1] = input ligand: microRNA oligo, concentration not stated
[2] = Eterna round: R95, input ligand: microRNA oligo, concentration not stated
[3] = Eterna round: R95, input ligand: FMN 200 uM
[4] = Eterna round: R95, input ligand: none

Row | Sequence | apparent KD of MS2 coat protein (input ligand: FMN 200 uM) [nM] | apparent KD of MS2 coat protein (input ligand: none) [nM] | apparent KD of MS2 coat protein [1] [nM] | apparent KD of MS2 coat protein [2] [nM] | apparent KD of MS2 coat protein [3] [nM] | apparent KD of MS2 coat protein [4] [nM]
1 | CCGGUGUGAGGAUAUCGUGGCUUGCAGGAAACGCUAAGUCGCGAGAAGGCACAUGAGGAUCACCCAUGUGUAUC [Eternabot (L2) Solution 54] (Eterna round: R97, puzzle: Exclusion 4) | 62.8 | 24.7 |  |  |  | 
2 | CCUCGCCCUCUUGCACAUGAGGAUCACCCAUGUUUUACGUACUAGGAUAUAGCUAUGUUCAAUCGUUAGAAGGAGUUCAUGGAU [Eternabot solution 37] (Eterna round: R96, puzzle: Exclusion NG 3) |  |  | 77.4 |  |  | 
3 | UAUUAGCAAGCAAGAUCCCACAUGAGGAUCACCCAUGUGCUCGUCUUAAUUCCAGAAUUACUGGGCUCUCGUCUUAU [JR_STOV1_Sub090] (Eterna round: R97, puzzle: Sensor, turn-off variant 1) | 41 | 40.6 |  |  |  | 
4 | CAGUACUGAGGAUAUACAUGAGGAUCACCCAUGUGUCCUAGCUAGGAAACUAGCAUUAGUAGAAGGCAGUACUG [Fiskers Ex 3 828 mod 6] (puzzle: Exclusion 3) |  |  |  | 22.1 |  | 
5 | AAGAAACGAGGAUAUACAGUUGAGUGAGAGAGGGUAGUGUUACAUGAGGAUCACCCAUGUAGAAGGCGUGAGAG [JR_Exclu2_Sub089] (puzzle: Exclusion 2) |  |  |  | 31.5 | 52.7 | 32.7
6 | UUUAAUUUUUUUUUUUUACAAGCUUUUUGCUCGUCUUAUACAUGAGGAUCACCCAUGUAGAUGGGAGAUAAAUUAUC [JMF 20] (puzzle: Sensor v3, turn-off variant 2) |  |  |  | 85.3 | 33.8 | 40.5
7 | AGCGCCAUCGUGAGAUGGCGUAUUACAUGAGGAUCACCCAUGUAGGAUAUCGAUUGCUUUGCAGUCGAGAAGGGCAUGUUCUAG [JL ENG3 3.80 Mod G] (Eterna round: R96, puzzle: Exclusion NG 3) | 82.4 | 73.6 | 35.8 |  |  | 
8 | ACGUUAGGAGGAUAUAGAAUUUUAGACAUGAGGAUCACCCAUGUCCUAUGUCAUGAGAGGCUAGAAGGCCUAGUUU [Eternabot (L2) Solution 51] (Eterna round: R97, puzzle: Exclusion 5) | 142 | 29.4 |  |  |  | 
9 | UGUUGUCGCGCAGGAUAUGCAUGAGGAUCACCCAUGCAAUUAGAGUUAACAUGAGGAUCACCCAUGUAGAAGGGCGGGACAACU [pwkr exNG2 2xF5 1xFMN.5] (Eterna round: R96, puzzle: Exclusion NG 2) | 65.1 | 54.2 | 27.6 |  |  | 
10 | GUGUUGUAUGUAGGAUAUGCAUACUGUUAGUAUGCAGAAGGACAUGAGGAUCACCCAUGUAUAUUAUUAUUAUAUAUCAUACAU [MOD of Hoglahoo's Title] (Eterna round: R96, puzzle: Exclusion NG 1) |  |  | 15.2 |  |  | 
11 | GGUUGGCGAGGAUAUACAUGAGGAUCACCCAUGUGAGAAUUAAAAGUGAGGAAGAAAAGUAGAAGGCGCUGACG [Mat - Exclusion 3 - Mod of Salish D4] (puzzle: Exclusion 3) |  |  |  | 36.1 | 304 | 384
12 | GAACCAAAAGGAUAUGGCGUAACAAACAUGAGGAUCACCCAUGUCCUCGAUGAAUAUCCGCCAGAAGGUUUGUCUC [Eternabot (L2) Solution 10] (Eterna round: R97, puzzle: Exclusion 5) | 1000 | 1760 |  |  |  | 
13 | GUGAAUGCAAGCUUUAAAUACAUGAGGAUCACCCAUGUAAACGCUAACCGCGAUAAUUACUGGGUACCUCCCGUCUU [Eternabot (L2) Solution 44] (Eterna round: R97, puzzle: Sensor, turn-off variant 1) | 8.7 | 24.9 |  |  |  | 
14 | GGUGCGUUUGUGAGGAUAUGCUGGUCCUUGGUUCAGCAGAAGGCACAUGAGGAUCACCCAUGUGGUGUCGUACC [salish99_Bmod_Ex4_031] (puzzle: Brourd's mod of Exclusion 4) |  |  |  | 145 |  | 
15 | CAAAAGCUAGGAUAUACAUGAGGAUCACCCAUGUCGCACUCUAGACACGCCAUACAUAGUAGAAGGAGCAAUCU [EX3 B.18] (Eterna round: R97, puzzle: Exclusion 3) | 21.7 | 17.9 |  |  |  | 
16 | CAUUAUUAUCGAGGAUAUCCUAUUGAAAUUCUGGGAGAAGGCGGACUCAACAUGAGGAUCACCCAUGUAAGACGGGUGCUAGGG [Ex NG1 #25] (Eterna round: R96, puzzle: Exclusion NG 1) | 202 | 157 | 93.1 |  |  | 
17 | UUUCUGUGAGGAUAUCAGUAGUAAAUAAAUAAAAUUACUACUGAGAAGGCACAUGAGGAUCACCCAUGUUCCUU [salish99_ex3_r3_093] (Eterna round: R96, puzzle: Exclusion 4) | 35.1 | 16.5 | 12.9 |  |  | 

Row | Sequence | apparent KD of MS2 coat protein (input ligand: FMN 200 uM) [nM] | apparent KD of MS2 coat protein (input ligand: none) [nM] | apparent KD of MS2 coat protein [1] [nM] | apparent KD of MS2 coat protein [2] [nM] | apparent KD of MS2 coat protein [3] [nM] | apparent KD of MS2 coat protein [4] [nM]
18 | AGUAGGUCUACCUUGGUGGAUCUGCAUUUAUGCAGGUGUACAUGAGGAUCACCCAUGUCCUCAUUUGCUCGUCUUAU [JL turnoff v2 99.27] (puzzle: Sensor v3, turn-off variant 2) |  |  |  | 501 | 400 | 349
19 | GUCAGCUCGUGAGGAUAUGCACAUGAGGAUCACCCAUGUAAGAUCAAGCUGCUUCGGCAGCAAGUGCAGAAGGUACGAGCUGAU [ENG2/9-C3] (Eterna round: R96, puzzle: Exclusion NG 2) | 257 | 286 | 225 |  |  | 
20 | GCGGACAAGAUCGUGAGAUCAGAGACAUGAGGAUCACCCAUGUAGGAUAUCGAUUCGAAACGAAUCGAGAAGGGCAUAGUCCGC [JL denovo 6] (Eterna round: R96, puzzle: Exclusion NG 3) | 20.5 | 19.8 | 14.9 |  |  | 
21 | UCGUGGUAAAUCAGGUGAUGUCUGAUAGGAUGGACUUUGACAUGAGGAUCACCCAUGUUGCUUUUUGCCCGUCUUAA [JR_SV3TOV2_Sub044] (puzzle: Sensor v3, turn-off variant 2) |  |  |  | 27.3 | 16.1 | 15.2
22 | CCGGAACAUGAGGAUCACCCAUGUGAGGAUAUCGUACGUUCGUCGAAAGACGAUCGUACGAGAAGGCAUGCCGG [Eli x1 4.34] (Eterna round: R97, puzzle: Exclusion 1) | 19.6 | 27.7 |  |  |  | 
23 | GCAUACUAAGGAUAUACAUGAGGAUCACCCAUGUUGCCAAAUGGCAGCAUCACCUGGAGUAGAAGGUAGAUGUA [Atanbi] (puzzle: Exclusion 3) |  |  |  | 29.7 |  | 
24 | UUUCUACAUGUAGGAUAUGCGUGGCGAAGCUAUGCAGAAGGACAUGAGGAUCACCCAUGUUUUAGCGUCUGCGUACAGAUGCGU [JL ENG1 1.49] (Eterna round: R96, puzzle: Exclusion NG 1) | 60.9 | 20.6 | 16.2 |  |  | 
25 | AGAUCGUCAGGAUAUACAUGAGGAUCACCCAUGUGUAGUUCCAAUUGGACUACAACAUGUAGAAGGGACGAUCG [Exclusion 3 (MOD1 of #1 Marzena11)] (Eterna round: R97, puzzle: Exclusion 3) | 1060 | 675 |  |  |  | 
26 | UAAAAGCUAGGAUAUACAUGAGGAUCACCCAUGUCAACCACACGGAUGCGCCGAGCAUGUAGAAGGAGCACCGG [Soora] (puzzle: Exclusion 3) |  |  |  | 17 |  | 
27 | GCUGGUCGAGGAUAUGCAUUCGUGCUUCGGCACGUAAGGUCACAUGAGGAUCACCCAUGUAGAAGGCGACCAGC [E2/6-A1] (Eterna round: R97, puzzle: Exclusion 2) | 30.2 | 17.5 |  |  |  | 
28 | UCGUGAUUAGAGGAUAUAUUUUGAGUCAGAACAAUAGAAGGCUAAACAUGAGGAUCACCCAUGUAAAUGUGUAA [JR_Ex6_Sub061] (Eterna round: R97, puzzle: Exclusion 6) | 184 | 34.9 |  |  |  | 
29 | AAGUAUAGAGGAUAUAGUGAGUACUACAUGAGGAUCACCCAUGUUCUUCAAAACGUAUUUCUAGAAGGCUGUUAAA [EX-5 Malc#20] (puzzle: Exclusion 5) |  |  |  | 43.5 |  | 
30 | UGUAUUAGGUCAGGAUAUACAUGAGGAUCACCCAUGUACAUGGAGCGAGUACAGUAUCAUGCAAGGUAGAAGGGACAGUCGACG [success! :D] (Eterna round: R96, puzzle: Exclusion NG 2) | 21.6 | 24.3 | 15.7 |  |  | 
31 | ACAUGAGGAUCACCCAUGUCCGGCUGGUCCGUUUCGGCUGUCGAGGAUAUAGUUCGGUGUCCGCGCUAGAAGGCGGGAGCCGGC [Aenatbe mod 62] (Eterna round: R96, puzzle: Exclusion NG 3) | 210 | 112 | 80.9 |  |  | 
32 | GGAGAGUCAGGAUAUACAUGAGGAUCACCCAUGUUGGAAAGUGGAGGGACGGGAGUCCGUAGAAGGGACGAGAG [Identicality] (puzzle: Exclusion 3) |  |  |  | 27.7 |  | 
33 | UGGUAACAUGAGGAUCACCCAUGUCAGGAUAUCAUGAAGAGGAGAGGAGAGGAGAGGAUGAGAAGGGACUAUAU [Excluse me! 13 - Jieux - Exclusion 1] (puzzle: Exclusion 1) |  |  |  | 30.4 | 39 | 38.4
34 | GCAGCUAGUUCAGGAUAUCAGCACGUUUAGUGCUGAGAAGGGAACAUGAGGAUCACCCAUGUGAUCAAUGCUGCAAUUUUAAUU [ENG1/12-A2] (Eterna round: R96, puzzle: Exclusion NG 1) | 1470 | 717 | 776 |  |  | 
